Target: T1, AmiB hydrolytic domain from Citrobacter rodentium (Citrobacter rodentium, UniProt A0A482PQR2 190-422)
T1 construct: AmiB peptidoglycan amidase, Citrobacter rodentium, hydrolytic (enzymatic) domain, cloned without the N-terminal AmiN domain; Construct limits and tags in SI Appendix; also called AmiB enzymatic domain
T1 sequence: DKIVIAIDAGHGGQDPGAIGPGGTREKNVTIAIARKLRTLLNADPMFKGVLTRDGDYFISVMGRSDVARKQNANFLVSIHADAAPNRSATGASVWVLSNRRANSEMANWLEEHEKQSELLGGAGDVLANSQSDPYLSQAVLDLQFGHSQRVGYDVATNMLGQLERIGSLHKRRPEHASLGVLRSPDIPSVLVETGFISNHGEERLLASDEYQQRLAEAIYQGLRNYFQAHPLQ
Experiment: crystal structure; X-ray crystallography, 3.4 Å; molecular replacement with Alphafold models
Details: both partners purified

B1: EnvC LytM domain from Citrobacter rodentium (domain or fragment)
chain: MSRTGGLGSPRGQAYWPVRGPTLHRYGEQLQGELRWKGMVIGASEGTEVKAIADGRVILADWLQGYGLVVVVEHGKGDMSLYGYNQSALVSVGTQVRAGQPIALVGSSGGQGRPSLYFEIRRQGQAVNPQPWLGR
notes: EnvC, Citrobacter rodentium, LytM domain; Construct limits and tags in SI Appendix
binding result: binds

From article PMC10268282, “Activator-induced conformational changes regulate division-associated peptidoglycan amidases” (Proceedings of the National Academy of Sciences of the …, 2023)
